{"source": "patent US20240209367", "target": "C3b", "data": [{"protein": "Complement Factor I (FI) (protein) KVTYTSQEDLVEKKCLAKKYTHLSCDKVFCQPWQRCIEGTCVCKLPYQCPKNGTAVCATNRRSFPTYCQQKSLECLHPGTKFLNNGTCTAEGKFSVSLKHGNTDSEGIVEVKLVDQDKTMFICKSSWSMREANVACLDLGFQQGADTQRRFKLSDLSINSTECLHVHCRGLETSLAECTFTKRRTMGYQDFADVVCYTQKADSPMDDFFQCVNGKYISQMKACDGINDCGDQSDELCCKACQGKGFHCKSGVCIPSQYQCNGEVDCITGEDEVGCAGFASVTQEETEILTADMDAERRRIKSLLPKLSCGVKNRMHIRRKRIVGGKRAQLGDLPWQVAIKDASGITCGGIYIGGCWILTAAHCLRASKTHRYQIWTTVVDWIHPDLKRIVIEYVDRIIFHENYNAGTYQNDIALIEMKKDGNKKDCELPRSIPACVPWSPYLFQPNDTCIVSGWGREKDNERVFSLQWGEVKLISNCSKFYGNRFYEKEMECAGTYDGSIDACKGDSGGPLVCMDANNVTYVWGVVSWGENCGKPEFPGVYTKVANYFDWISYHVGRPFISQYNV", "values": [{"measurement": "in vitro C3b breakdown assay (C3b incubated with FI and a fragment of cofactor CR1; time course by gel electrophoresis and GluC/SRM-MS)", "value": "the formation of C3b fragments iC3b, C3f and C3c, and loss of intact C3b can be clearly detected over time"}]}]}
